The record followed here is paper PMC4376941, “The Gene YALI0E20207g from Yarrowia lipolytica Encodes an N-Acetylglucosamine Kinase Implicated in the Regulated Expression of the Genes from the N-Acetylglucosamine Assimilatory Pathway” (PLoS ONE, 2015).

In general, Km refers to the substrate concentration at which the rate is half of its maximum.

Substrate in the data set: Nc1ncnc2c1ncn2[C@@H]1O[C@H](COP(=O)(O)OP(=O)(O)OP(=O)(O)O)[C@@H](O)[C@H]1O
As to the kind of experiment: purified protein. The data set is classed as biochemical, Yarrowia lipolytica. The conditions noted are these: 4 mM NAGA, 0.1 M Tris-HCl pH 7.5, 30 °C, mean of two preparations.

B1: YlNag5 (YALI0E20207p), N-acetylglucosamine (NAGA) kinase (Yarrowia lipolytica CLIB122) (protein)
chain: MSMGDDDRAYHHQMSVIVTAANANLPGHGKGPLVSVSSELLTKESHLMYDFERYVARNPSRFNQKVLDNLRIHHTYTRSSLDTLVNEFLAEITPACANRDAPSMLPSKMGSLPNDSLTGSVLSIDIGGSTLRGSMVDLEKMTVTDSVQHLIPDTVKNYSGSDFFDWIVERIMPLVKDCTATIIPIGLSWSFPIFQPHISSGLIQTMGKGYGVADEIINQDLKELFETHFASHGKTVEVGAILNDSVASLVAANYISNAPLCLILGTGINVSALIPKDQLKKTEQDQDKYIVNCEASLFGQCVSKTCWDLELDQALERPGFQPLESLSSGRYLGEICRLILRDLSKTGFLSRPDVGPYELTTAEVADLETADSGELDYVQDIILATSDRSAALASAFITAIYKLTGSDCESPSIAYDGTMVQKYPNFRPRMQQRLREQGLNVTFVAVEEGTVYGSAIACASQLSQ
notes: N-terminal GST fusion (pGEX-4T-2, plasmid pCL151), full-length ORF, expressed in E. coli BL21(DE3), glutathione-Sepharose eluted, tag not reported cut
Take B1: the Michaelis constant (Km) is 1000 µM.
